Consider 1 protein from paper PMC11890623, “Pseudomonas aeruginosa acyl-CoA dehydrogenases and structure-guided inversion of their substrate specificity” (Nature Communications, 2025).

Common to all, as to assay: Michaelis-Menten kinetics of purified enzyme (KM)
Holding throughout (type): biochemical, Pseudomonas aeruginosa
What all share (settings): FAD

Substrate in series [1]: CCCCCCCC(=O)SCCNC(=O)CCNC(=O)[C@H](O)C(C)(C)COP(=O)(O)OP(=O)(O)OC[C@H]1O[C@@H](n2cnc3c(N)ncnc32)[C@H](O)[C@@H]1OP(=O)(O)O
Substrate in series [2]: CCCCCC(=O)SCCNC(=O)CCNC(=O)[C@H](O)C(C)(C)COP(=O)(O)OP(=O)(O)OC[C@H]1O[C@@H](n2cnc3c(N)ncnc32)[C@H](O)[C@@H]1OP(=O)(O)O
Substrate in series [3]: CCCC(=O)SCCNC(=O)CCNC(=O)[C@H](O)C(C)(C)COP(=O)(O)OP(=O)(O)OC[C@H]1O[C@@H](n2cnc3c(N)ncnc32)[C@H](O)[C@@H]1OP(=O)(O)O

B1: FadE2 (Pseudomonas aeruginosa PAO1) (protein)
chain: MADYKAPLRDMRFVLNEVFEVSRLWAQLPALAEVVDAETAAAILEEAGKVTAGTIAPLNRPGDEEGCQWNAGAVSTPAGFPEAYRTYAEGGWVGVGGDPAYGGMGMPKVISAQVEELVNSANLSFGLYPMLTAGACLALNAHASDELKDKYLPNMYAGIWAGSMCLTEPHAGTDLGIIRTRAEPQADGSYKISGTKIFITGGEHDLTENIIHLVLAKLPDAPAGPKGISLFLVPKVLVNADGSLGEKNSLGCGSIEHKMGIKASATCVMNFDGATGWLVGEVNKGLAAMFTMMNYERLGVGIQGLATGERSYQSAIEYARERIQSRAPTGPVAKDKAADPIIVHPDVRRMLLTMKALNEGGRAFSSYVAMQLDTAKYSEDAVTRKRAEELVALLTPVAKAFLTDMGLETTIHGQQIFGGHGFIREWGQEQLVRDCRITQIYEGTNGIQALDLVGRKVIGSGGAFSRHFTDEIKAFVASADEALGEFSKPLAAAVENLEELTAWLLDRAKGNPNEIGAASVEYLHVFGYTAYAYMWALMARTALAKQGEDDFYASKLGTARFYFARLLPRIHSLSASVRAGSESLYLLDAEQF
notes: full-length ORF, His6 tag removed by TEV
As usually defined, the Km is the substrate concentration at which the rate is half of its maximum. Take B1: the results for the Michaelis-Menten constant (Km) in series [1], in series [2] and in series [3] were 21.59 ± 1.23 µM, 14.6 ± 1.43 µM and 10.35 ± 1.06 µM, respectively.
